# Molecular target: T1, GFP-PSD-95 (green fluorescent protein-tagged postsynaptic density-95) (UniProt P31016 1-724)
# T1 construct: postsynaptic density-95 (PSD-95); Printed as GFP-PSD-95 in the results and PSD-95-GFP in the methods; also called PSD-95-GFP; source: HEK293T, transfected, in lysate
# Assay: co-IP; HEK293T cells cotransfected with HA-Prickle2 and GFP-PSD-95, with or without FLAG-Vangl2 WT or ΔETSV; IP of the lysate with α-GFP Abs, western blot; 1% NP-40, 150 mM NaCl, 50 mM Tris-Cl pH 7.5, 2 mM EDTA, 10% glycerol, on ice or at 4 °C; precipitated Prickle2 (IP/Input) divided by the relative amount of precipitated PSD-95-GFP
# Details: partners not purified
# T1 sequence (P31016 whole entry): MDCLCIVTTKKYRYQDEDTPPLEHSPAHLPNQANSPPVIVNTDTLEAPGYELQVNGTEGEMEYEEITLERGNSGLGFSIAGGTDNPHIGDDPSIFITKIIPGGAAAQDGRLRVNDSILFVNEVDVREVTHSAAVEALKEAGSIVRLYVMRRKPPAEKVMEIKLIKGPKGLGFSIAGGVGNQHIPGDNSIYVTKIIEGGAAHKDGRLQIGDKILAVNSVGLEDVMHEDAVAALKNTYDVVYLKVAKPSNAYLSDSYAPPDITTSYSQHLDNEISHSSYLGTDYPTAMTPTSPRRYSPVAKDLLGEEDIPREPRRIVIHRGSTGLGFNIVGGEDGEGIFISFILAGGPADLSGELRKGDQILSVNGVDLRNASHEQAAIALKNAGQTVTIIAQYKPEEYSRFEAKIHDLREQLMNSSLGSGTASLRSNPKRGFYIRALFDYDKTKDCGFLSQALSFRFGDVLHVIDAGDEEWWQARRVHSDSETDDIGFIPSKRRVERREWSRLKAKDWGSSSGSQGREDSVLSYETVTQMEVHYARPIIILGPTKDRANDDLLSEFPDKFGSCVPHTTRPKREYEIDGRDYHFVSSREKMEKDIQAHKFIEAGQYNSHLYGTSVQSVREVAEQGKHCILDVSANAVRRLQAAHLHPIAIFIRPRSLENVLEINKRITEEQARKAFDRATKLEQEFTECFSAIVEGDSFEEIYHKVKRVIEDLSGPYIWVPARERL
binder,measurement,value
"hemagglutinin (HA)-Prickle2 (natural protein, UniProt Q80Y24 1-845, looked up, Prickle2; source: HEK293T, transfected, in lysate) MVTVMPLEMEKTISKLMFDFQRSSTSDDDSGCALEEYAWVPPGLKPEQVHQYYSCLPEEKVPYVNSAGEKLRIKQLLHQLPPHDNEVRYCNSLDEEEKRELKLFSNQRKRENLGRGNVRPFPVTMTGAICEQCGGQIKGGDIAVFASRAGHGICWHPPCFVCTVCNELLVDLIYFYQDGKIYCGRHHAECLKPRCAACDEIIFADECTEAEGRHWHMRHFCCFECETVLGGQRYIMKEGRPYCCHCFESLYAEYCDTCAQHIGIDQGQMTYDGQHWHATETCFCCAHCKKSLLGRPFLPKQGQIFCSRACSAGEDPNGSDSSDSAFQNARAKESRRSAKIGKNKGKTEEAMLNQHSQLQVSSNRLSADVDPLSVQMDLLSLSSQTPSLNRDPIWRSREEPFHYGNKMEQNQSQSPLQLLSQCNIRTSYSPGGQGAGAQPDMWAKHFSNPKRSSSMALKGHGGSFIQECREDYYPGRLMSQESYSDMSSQSFNETRGSIPVPKYEEEEEEEEGGISTQQCRPRRPLSSLKYTEDMTPTEQTPRGSMESLALSNATGLSAEGGAKRQEHLSRFSMPDLSKDSGMNVSEKLSNMGTLNSSMQFRSAESVRSLLSAQQYQEMEGNLHQLSNPLGYRDLQSHGRMHQSFDFDGGIASSKLPGQEGVHIQPMSERTRRRTTSRDDNRRFRPHRSRRSRRSRSDNALHLASEREVIARLKERPPLRAREDYDQFMRQRSFQESLGQGSRRDLYSQCPRTVSDLALQNAFGERWGPYFTEYDWCSTCSSSSESDNEGYFLGEPIPQPARLRYVTSDELLHKYSSYGVPKSSTLGGRGQLHSRKRQKSKNCIIS","fold increase of the precipitated amount of Prickle2 with FLAG-Vangl2 co-expressed, against without Vangl2",63.6 fold
